# According to patent publication US20240400677A1:
# What was measured:
# [1] = target: human SIRPγ on primary human T-cells (human) (UniProt Q9P1W8); test: flow cytometry, naive resting human CD4+ T cells
# [2] = target: human SIRPγ on primary human T-cells (human) (UniProt Q9P1W8); test: flow cytometry, anti-CD3/CD28-stimulated human CD3+ T cells
# [3] = target: human SIRPγ on primary human T-cells (human) (UniProt Q9P1W8); test: flow cytometry, anti-CD3/CD28-stimulated human CD8+ T cells
# [4] = target: human SIRPγ on primary human T-cells (human) (UniProt Q9P1W8); test: flow cytometry, anti-CD3/CD28-stimulated human CD4+ T cells
# [5] = target: human SIRPγ on primary human T-cells (human) (UniProt Q9P1W8); test: flow cytometry, naive resting human CD8+ T cells
# [6] = target: human SIRPγ on primary human T-cells (human) (UniProt Q9P1W8); test: flow cytometry, naive resting human CD3+ T cells
# Chain of human SIRPγ on primary human T-cells (human) (Q9P1W8 29-387 limits assumed): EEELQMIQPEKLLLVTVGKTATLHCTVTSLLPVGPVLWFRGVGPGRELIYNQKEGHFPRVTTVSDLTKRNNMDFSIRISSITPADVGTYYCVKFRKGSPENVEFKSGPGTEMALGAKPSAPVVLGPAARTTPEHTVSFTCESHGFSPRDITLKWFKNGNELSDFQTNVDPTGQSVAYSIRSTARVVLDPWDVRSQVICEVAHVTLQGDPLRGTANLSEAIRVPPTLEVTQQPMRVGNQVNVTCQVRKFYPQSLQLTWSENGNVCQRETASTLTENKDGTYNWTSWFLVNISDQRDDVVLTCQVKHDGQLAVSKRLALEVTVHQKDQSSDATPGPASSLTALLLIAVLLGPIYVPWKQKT
substance,measurement,setting,value
"mouse monoclonal antibody against human SIRPγ, clone OX-119 (ThermoFisher Scientific MA5-28215)",EC50 (read off the curve),[1],0.04 µg/mL
same,EC50 (read off the curve),[2],0.4 µg/mL
same,EC50 (read off the curve),[3],0.1 µg/mL
same,EC50 (read off the curve),[4],0.05 µg/mL
same,EC50 (read off the curve),[5],0.09 µg/mL
same,EC50 (read off the curve),[6],0.2 µg/mL
